# T1: Mcm4 (S. cerevisiae, UniProt P30665 1-933)
# T1 construct: Mcm4, S. cerevisiae; the entire MCM4 ORF stands on pET11a-MCM4; also called minichromosome maintenance protein 4; source: purified (ammonium sulphate, SP Sepharose, heparin agarose, ssDNA Sepharose, Mono S)
# T1 sequence (looked up): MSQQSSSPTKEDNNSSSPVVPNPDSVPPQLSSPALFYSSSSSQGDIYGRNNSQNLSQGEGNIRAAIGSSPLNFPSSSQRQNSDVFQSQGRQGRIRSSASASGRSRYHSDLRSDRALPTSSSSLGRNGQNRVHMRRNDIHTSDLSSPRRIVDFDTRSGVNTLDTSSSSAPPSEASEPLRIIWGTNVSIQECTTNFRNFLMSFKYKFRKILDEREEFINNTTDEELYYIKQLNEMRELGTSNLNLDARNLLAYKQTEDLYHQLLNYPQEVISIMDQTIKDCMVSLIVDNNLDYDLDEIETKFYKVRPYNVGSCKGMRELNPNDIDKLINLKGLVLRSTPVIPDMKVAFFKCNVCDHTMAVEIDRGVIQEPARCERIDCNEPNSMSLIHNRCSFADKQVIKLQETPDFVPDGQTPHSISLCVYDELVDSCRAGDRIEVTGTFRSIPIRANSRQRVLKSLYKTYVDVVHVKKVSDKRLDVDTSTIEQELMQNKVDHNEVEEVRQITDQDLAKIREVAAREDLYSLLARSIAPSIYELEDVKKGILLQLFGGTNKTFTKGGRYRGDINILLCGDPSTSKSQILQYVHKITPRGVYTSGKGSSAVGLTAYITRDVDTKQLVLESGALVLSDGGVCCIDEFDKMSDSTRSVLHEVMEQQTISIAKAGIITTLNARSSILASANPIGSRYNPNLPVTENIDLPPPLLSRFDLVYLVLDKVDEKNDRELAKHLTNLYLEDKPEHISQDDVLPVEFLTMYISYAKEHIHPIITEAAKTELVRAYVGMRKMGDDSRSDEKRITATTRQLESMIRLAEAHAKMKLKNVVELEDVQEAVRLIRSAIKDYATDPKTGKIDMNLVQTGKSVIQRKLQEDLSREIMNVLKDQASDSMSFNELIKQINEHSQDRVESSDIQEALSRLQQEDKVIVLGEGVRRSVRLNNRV
# B1: Mcm4^R701A (natural protein, S. cerevisiae, UniProt P30665 1-933, looked up)
# chain: MSQQSSSPTKEDNNSSSPVVPNPDSVPPQLSSPALFYSSSSSQGDIYGRNNSQNLSQGEGNIRAAIGSSPLNFPSSSQRQNSDVFQSQGRQGRIRSSASASGRSRYHSDLRSDRALPTSSSSLGRNGQNRVHMRRNDIHTSDLSSPRRIVDFDTRSGVNTLDTSSSSAPPSEASEPLRIIWGTNVSIQECTTNFRNFLMSFKYKFRKILDEREEFINNTTDEELYYIKQLNEMRELGTSNLNLDARNLLAYKQTEDLYHQLLNYPQEVISIMDQTIKDCMVSLIVDNNLDYDLDEIETKFYKVRPYNVGSCKGMRELNPNDIDKLINLKGLVLRSTPVIPDMKVAFFKCNVCDHTMAVEIDRGVIQEPARCERIDCNEPNSMSLIHNRCSFADKQVIKLQETPDFVPDGQTPHSISLCVYDELVDSCRAGDRIEVTGTFRSIPIRANSRQRVLKSLYKTYVDVVHVKKVSDKRLDVDTSTIEQELMQNKVDHNEVEEVRQITDQDLAKIREVAAREDLYSLLARSIAPSIYELEDVKKGILLQLFGGTNKTFTKGGRYRGDINILLCGDPSTSKSQILQYVHKITPRGVYTSGKGSSAVGLTAYITRDVDTKQLVLESGALVLSDGGVCCIDEFDKMSDSTRSVLHEVMEQQTISIAKAGIITTLNARSSILASANPIGSRYNPNLPVTENIDLPPPLLSAFDLVYLVLDKVDEKNDRELAKHLTNLYLEDKPEHISQDDVLPVEFLTMYISYAKEHIHPIITEAAKTELVRAYVGMRKMGDDSRSDEKRITATTRQLESMIRLAEAHAKMKLKNVVELEDVQEAVRLIRSAIKDYATDPKTGKIDMNLVQTGKSVIQRKLQEDLSREIMNVLKDQASDSMSFNELIKQINEHSQDRVESSDIQEALSRLQQEDKVIVLGEGVRRSVRLNNRV
# notes: Mcm4, S. cerevisiae; entire MCM4 ORF with the SRF arginine R701 changed to alanine; Purification of the mutant is not described separately; also called 4^RA; Mcm4^RA; source: purified
# Key:
# Conditions in all cases: both partners purified
# Mcm6 = molecular target: T2, Mcm6 (S. cerevisiae, UniProt P53091 1-1017); test: SEC; 5.2 nmol each subunit mixed, 5 mg/ml, 16°C 30 min; Superose 6 10/300 GL, 20 mM Tris-HCl pH 7.5, 0.1 mM EDTA, 2 mM DTT, 100 mM NaCl, 10% glycerol; no nucleotide
# T2 construct: Mcm6, S. cerevisiae; also called minichromosome maintenance protein 6
# Mcm4^R701A = molecular target: B1; test: as above
# Mcm4 = molecular target: T1, Mcm4; test: cross-linking; glutaraldehyde, 9 ug Mcm4/6/7 in 20 mM HEPES NaOH pH 8.4, 10 mM magnesium acetate, no nucleotide; 16°C 30 min then 2 min 37°C; 3.5% SDS-phosphate gel
# T2 sequence (P53091 whole entry): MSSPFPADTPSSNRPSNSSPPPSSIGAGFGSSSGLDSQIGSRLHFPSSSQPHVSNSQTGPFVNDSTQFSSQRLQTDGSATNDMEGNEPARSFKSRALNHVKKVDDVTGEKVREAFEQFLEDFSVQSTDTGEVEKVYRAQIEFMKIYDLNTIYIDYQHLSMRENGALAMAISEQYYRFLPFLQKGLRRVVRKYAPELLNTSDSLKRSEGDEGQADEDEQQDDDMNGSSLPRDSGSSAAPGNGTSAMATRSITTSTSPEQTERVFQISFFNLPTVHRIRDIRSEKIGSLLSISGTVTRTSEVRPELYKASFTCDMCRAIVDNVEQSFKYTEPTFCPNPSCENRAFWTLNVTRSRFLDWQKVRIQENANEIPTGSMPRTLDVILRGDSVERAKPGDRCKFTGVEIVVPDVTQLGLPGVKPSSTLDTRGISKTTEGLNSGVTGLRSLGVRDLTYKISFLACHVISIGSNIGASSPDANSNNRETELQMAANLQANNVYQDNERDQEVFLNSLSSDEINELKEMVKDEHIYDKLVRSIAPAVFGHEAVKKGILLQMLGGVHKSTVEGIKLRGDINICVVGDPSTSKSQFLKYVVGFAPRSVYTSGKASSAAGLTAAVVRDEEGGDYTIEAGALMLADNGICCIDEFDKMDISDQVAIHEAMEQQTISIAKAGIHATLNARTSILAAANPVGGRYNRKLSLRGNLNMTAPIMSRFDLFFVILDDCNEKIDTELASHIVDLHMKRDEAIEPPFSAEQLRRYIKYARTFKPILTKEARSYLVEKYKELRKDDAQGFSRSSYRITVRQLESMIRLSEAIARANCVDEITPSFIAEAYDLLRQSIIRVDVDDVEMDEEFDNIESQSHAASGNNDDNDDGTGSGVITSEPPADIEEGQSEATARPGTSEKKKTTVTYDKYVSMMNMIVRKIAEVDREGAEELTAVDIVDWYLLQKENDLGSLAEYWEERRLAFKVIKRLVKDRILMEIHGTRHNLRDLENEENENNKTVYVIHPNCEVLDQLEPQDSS
binder,measurement,setting,value
B1,binding result,Mcm6,binds
"Mcm7 (natural protein, S. cerevisiae, UniProt P38132 1-845, looked up, Mcm7, S. cerevisiae; also called minichromosome maintenance protein 7) MSAALPSIQLPVDYNNLFNEITDFLVTFKQDTLSSDATRNENEDENLDAENIEQHLLEKGPKYMAMLQKVANRELNSVIIDLDDILQYQNEKFLQGTQADDLVSAIQQNANHFTELFCRAIDNNMPLPTKEIDYKDDVLDVILNQRRLRNERMLSDRTNEIRSENLMDTTMDPPSSMNDALREVVEDETELFPPNLTRRYFLYFKPLSQNCARRYRKKAISSKPLSVRQIKGDFLGQLITVRGIITRVSDVKPAVEVIAYTCDQCGYEVFQEVNSRTFTPLSECTSEECSQNQTKGQLFMSTRASKFSAFQECKIQELSQQVPVGHIPRSLNIHVNGTLVRSLSPGDIVDVTGIFLPAPYTGFKALKAGLLTETYLEAQFVRQHKKKFASFSLTSDVEERVMELITSGDVYNRLAKSIAPEIYGNLDVKKALLLLLVGGVDKRVGDGMKIRGDINVCLMGDPGVAKSQLLKAICKISPRGVYTTGKGSSGVGLTAAVMKDPVTDEMILEGGALVLADNGICCIDEFDKMDESDRTAIHEVMEQQTISISKAGINTTLNARTSILAAANPLYGRYNPRLSPLDNINLPAALLSRFDILFLMLDIPSRDDDEKLAEHVTYVHMHNKQPDLDFTPVEPSKMREYIAYAKTKRPVMSEAVNDYVVQAYIRLRQDSKREMDSKFSFGQATPRTLLGIIRLSQALAKLRLADMVDIDDVEEALRLVRVSKESLYQETNKSKEDESPTTKIFTIIKKMLQETGKNTLSYENIVKTVRLRGFTMLQLSNCIQEYSYLNVWHLINEGNTLKFVDDGTMDTDQEDSLVSTPKLAPQTTASANVSAQDSDIDLQDA",binding result,Mcm4^R701A,binds
same,binding result,Mcm4,binds

# Source: article PMC2949612, “The effects of oligomerization on Saccharomyces cerevisiae Mcm4/6/7 function” (BMC Biochemistry, 2010)
